Test results from article doi:10.1101/2024.10.01.616040 (bioRxiv, 2024).

Experiments:
His-TEV-ORF1p (human) = His-TEV-ORF1p (human) (UniProt Q9UN81); assay: mass photometry
mass photometry = biological target: the molecule itself; assay: mass photometry

His-TEV-ORF1p (from UniProt Q9UN81 1-338) (natural protein)
percent of counts that are monomers (His-TEV-ORF1p (human)): 30%

B1: K3A/K4A-ORF1p (natural protein)
chain: MGAAQNRKTGNSKTQSASPPPKERSSSPATEQSWMENDFDELREEGFRRSNYSELREDIQTKGKEVENFEKNLEECITRITNTEKCLKELMELKTKARELREECRSLRSRCDQLEERVSAMEDEMNEMKREGKFREKRIKRNEQSLQEIWDYVKRPNLRLIGVPESDVENGTKLENTLQDIIQENFPNLARQANVQIQEIQRTPQRYSSRRATPRHIIVRFTKVEMKEKMLRAAREKGRVTLKGKPIRLTADLSAETLQARREWGPIFNILKEKNFQPRISYPAKLSFISEGEIKYFIDKQMLRDFVTTRPALKELLKEALNMERNNRYQPLQNHAKM
stoichiometry N (mass photometry): 6

B2: ΔStammer-ORF1p (natural protein)
chain: MGKKQNRKTGNSKTQSASPPPKERSSSPATEQSWMENDFDELREEGFRRSNYSELREDIQTKGKEVENFEKNLEECITRITNTEKCLKELKTKARELREECRSLRSRCDQLEERVSAMEDEMNEMKREGKFREKRIKRNEQSLQEIWDYVKRPNLRLIGVPESDVENGTKLENTLQDIIQENFPNLARQANVQIQEIQRTPQRYSSRRATPRHIIVRFTKVEMKEKMLRAAREKGRVTLKGKPIRLTADLSAETLQARREWGPIFNILKEKNFQPRISYPAKLSFISEGEIKYFIDKQMLRDFVTTRPALKELLKEALNMERNNRYQPLQNHAKM
stoichiometry N (mass photometry): 6
